Measurements taken from patent US20250235501A1, “Methods and Compositions for Treating or Preventing Neurological Injury or Neurological Disorders” (University of Connecticut, priority 2024, published 2025).

Biological target: T1, NMDARs (Mus musculus, UniProt P35436+Q01097)
T1 construct: from tissue; host or cells: mouse brain, membrane protein extract 24 h after MCAO or sham
Test: Surface expression of NMDARs in brains of MCAO mice (WB)
Assay type: in vivo
Settings: 100 nmol/kg ip 15 mins before MCAO; 24 hrs after MCAO
Procedure: FIGS. 7D and 7E show the effects of TAT-EE3 on surface expression of NMDARs in WT and nM2KO mice 24 hrs after MCAO or sham procedure. TAT-SC and TAT-EE3 were ip administrated (100 nmol/kg) 15 mins before MCAO or sham procedure. FIG. 7D show the WB of surface expression of NMDARs from two representative samples/group. Pan-cadherin was used as loading control. FIG. 7E show the quantification of surface expression of NMDARs normalized to Pan-cadherin (ns, p>0.05; ***, p<0.001; ANOVA, Bonferroni's test; mean±SEM; n=4 mice/group).
Eight-to nine-week-old male mice (˜25 g) were subjected to right middle cerebral artery occlusion (MCAO) for 120 min followed by 24 hours of reperfusion. The genotype information was blinded to the surgeon who conduct the surgeries. […] Mouse body temperature was monitored by a rectal temperature probe and maintained at ˜ 37° C. with an automatic temperature-regulating heating pad connected to animal temperature controller (TCA T-2DF, Physitemp). Cerebral blood flow was monitored after occlusion as well as after reperfusion. […] Successful occlusion was confirmed by 85% reduction of cerebral blood flow monitored by Laser Doppler Flowmetry (LDF) with laser Doppler blood FlowMeter (Moor-VMS-LDF1, Moor Instrument, Dever, UK). […]

T1 sequence (P35436 20-1464 limits assumed, other chains not shown): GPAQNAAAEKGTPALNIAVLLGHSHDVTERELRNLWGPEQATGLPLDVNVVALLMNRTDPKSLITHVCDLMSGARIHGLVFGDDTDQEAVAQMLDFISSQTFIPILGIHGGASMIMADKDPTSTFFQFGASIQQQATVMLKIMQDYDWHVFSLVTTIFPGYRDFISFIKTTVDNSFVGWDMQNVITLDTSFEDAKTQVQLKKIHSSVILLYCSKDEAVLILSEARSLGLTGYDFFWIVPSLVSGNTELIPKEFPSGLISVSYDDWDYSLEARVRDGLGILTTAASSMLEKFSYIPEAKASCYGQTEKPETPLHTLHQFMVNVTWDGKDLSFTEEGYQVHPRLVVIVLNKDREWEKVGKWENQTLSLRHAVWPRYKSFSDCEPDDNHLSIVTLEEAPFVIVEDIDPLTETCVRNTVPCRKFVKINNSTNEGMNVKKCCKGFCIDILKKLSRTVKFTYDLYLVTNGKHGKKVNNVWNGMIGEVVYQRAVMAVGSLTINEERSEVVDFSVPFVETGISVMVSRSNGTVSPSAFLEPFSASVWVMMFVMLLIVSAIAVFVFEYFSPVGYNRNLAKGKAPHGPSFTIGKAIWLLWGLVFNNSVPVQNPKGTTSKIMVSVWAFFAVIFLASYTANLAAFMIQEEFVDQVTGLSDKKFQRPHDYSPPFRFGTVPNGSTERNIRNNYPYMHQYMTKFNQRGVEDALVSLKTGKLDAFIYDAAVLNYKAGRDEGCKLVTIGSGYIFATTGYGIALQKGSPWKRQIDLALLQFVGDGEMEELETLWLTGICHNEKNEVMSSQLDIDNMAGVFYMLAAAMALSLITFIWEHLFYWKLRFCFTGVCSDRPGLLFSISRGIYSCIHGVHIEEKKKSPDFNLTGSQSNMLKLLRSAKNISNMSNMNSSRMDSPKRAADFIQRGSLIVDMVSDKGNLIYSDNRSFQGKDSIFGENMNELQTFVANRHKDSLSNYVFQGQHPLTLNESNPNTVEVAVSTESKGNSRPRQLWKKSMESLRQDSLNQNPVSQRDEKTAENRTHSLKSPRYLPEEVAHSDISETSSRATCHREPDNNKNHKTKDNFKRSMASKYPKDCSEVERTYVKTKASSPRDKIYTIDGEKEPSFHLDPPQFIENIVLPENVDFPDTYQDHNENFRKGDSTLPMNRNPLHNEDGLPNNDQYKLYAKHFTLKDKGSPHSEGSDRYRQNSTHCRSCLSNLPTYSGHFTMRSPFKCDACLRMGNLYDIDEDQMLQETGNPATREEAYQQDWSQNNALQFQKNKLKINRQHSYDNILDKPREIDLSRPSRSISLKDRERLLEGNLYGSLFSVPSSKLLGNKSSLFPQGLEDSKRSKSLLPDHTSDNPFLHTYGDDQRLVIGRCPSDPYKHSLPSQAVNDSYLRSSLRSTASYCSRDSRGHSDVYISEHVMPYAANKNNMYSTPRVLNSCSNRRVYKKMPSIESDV
T1 sequence (Q01097 27-1482, other chains not shown): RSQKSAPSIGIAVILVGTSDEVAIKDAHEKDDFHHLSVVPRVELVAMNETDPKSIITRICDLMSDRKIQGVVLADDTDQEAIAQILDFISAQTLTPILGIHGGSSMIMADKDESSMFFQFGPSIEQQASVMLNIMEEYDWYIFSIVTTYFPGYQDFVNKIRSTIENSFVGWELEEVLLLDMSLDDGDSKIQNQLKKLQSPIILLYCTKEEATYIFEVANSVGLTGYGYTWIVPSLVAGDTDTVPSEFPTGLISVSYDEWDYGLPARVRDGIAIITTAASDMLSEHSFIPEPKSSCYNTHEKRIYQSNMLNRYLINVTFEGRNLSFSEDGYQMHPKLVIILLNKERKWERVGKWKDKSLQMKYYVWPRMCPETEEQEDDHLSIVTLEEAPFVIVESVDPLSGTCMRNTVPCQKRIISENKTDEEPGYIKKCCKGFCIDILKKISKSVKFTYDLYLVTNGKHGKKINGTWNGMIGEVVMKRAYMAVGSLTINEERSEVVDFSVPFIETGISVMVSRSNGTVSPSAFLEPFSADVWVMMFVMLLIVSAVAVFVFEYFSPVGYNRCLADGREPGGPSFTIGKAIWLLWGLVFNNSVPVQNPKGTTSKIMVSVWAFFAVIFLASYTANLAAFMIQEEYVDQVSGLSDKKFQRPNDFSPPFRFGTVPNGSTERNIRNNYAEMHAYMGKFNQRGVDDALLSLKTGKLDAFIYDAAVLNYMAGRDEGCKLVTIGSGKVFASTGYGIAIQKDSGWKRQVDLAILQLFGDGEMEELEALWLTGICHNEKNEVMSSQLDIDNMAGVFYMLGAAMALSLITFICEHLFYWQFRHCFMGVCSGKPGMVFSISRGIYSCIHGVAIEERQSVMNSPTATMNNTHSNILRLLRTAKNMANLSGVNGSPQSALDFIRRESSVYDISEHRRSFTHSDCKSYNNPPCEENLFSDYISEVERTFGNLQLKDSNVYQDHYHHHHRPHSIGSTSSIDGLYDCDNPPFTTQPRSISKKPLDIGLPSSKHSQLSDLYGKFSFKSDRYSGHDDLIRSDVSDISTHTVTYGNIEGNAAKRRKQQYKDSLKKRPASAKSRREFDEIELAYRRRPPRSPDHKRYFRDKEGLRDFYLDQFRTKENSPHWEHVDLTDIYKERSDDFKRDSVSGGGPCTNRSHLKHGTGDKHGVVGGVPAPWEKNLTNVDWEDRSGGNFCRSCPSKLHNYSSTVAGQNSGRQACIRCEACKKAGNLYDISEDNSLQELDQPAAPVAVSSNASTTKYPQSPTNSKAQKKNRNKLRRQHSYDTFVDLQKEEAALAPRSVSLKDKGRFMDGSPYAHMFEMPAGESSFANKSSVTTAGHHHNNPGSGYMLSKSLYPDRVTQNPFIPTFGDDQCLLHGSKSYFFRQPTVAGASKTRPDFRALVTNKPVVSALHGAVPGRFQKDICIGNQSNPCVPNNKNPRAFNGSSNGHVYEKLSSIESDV

TAT-EE3: membrane permeable disrupting peptide, sequence YGRKKRRQRRREEDTDSSEEMLALAEE (SEQ ID NO: 4)
enhanced surface expression of NMDARs in MCAO mice: abolished
